Data on nine molecules can be found in patent US20230226096A1 (Orna Therapeutics, Inc., priority 2020, published 2023).

B1: GFTV (nucleic acid)
DNA: ATGGGGAAGGGTATGACGTGCCCCTTCCTTCTTCGGAGAACTCGCTCTAGTGGTCTTTCCACTTCTGGAAAAGAGTGAGTGCACGTGATCAGGACCGTCGAAGACGACAAATACCTGGTGCTCTATCTCATAGACGTTTCACAGCTGTAGCGACCCCTCAGTAGCAGCGGAAGCCCCCTCCTGGTGACAGGAGCCTCTGCGGCCAAAAGCCACGTGGATAAGATCCACTGCTGAGGGCGGTGCGACCCTAGCACCCTGTGATGCATACTAGTTGTAGCGTGCCGGACTATTGGTCTGTCATAAGACACCTGATAGAGAGACCAAGAATGTCCTGGAGGTACCCCGCGTGCGGGATCTGACCAGGAGACCATTGCCCAATGCTTTACAACGGGTCTATGGTTTAAAAACTGTCGCAGTCTCTCCAAACCAAGTGGTCTTGGTTTTCAATTACTTTGAATATTTCACT
B2: EMCV2 RD1338 (nucleic acid)
DNA: AAATACTGGTCGAAACCGCTTGGGATAAGACCGGGGTTTGTTAATGTCTCAATGTTATTCTCCACCCAATTGACGTCTTTTGTCAATTGGAGGGCAGTGAAACCTTGCCCTTGCTTCTTGCAGAGGATTCCCAGTGGTCTTTCCGCTCTCGACAAGGGAATTCATGATCCACCAAAAGTTGTGAAGAGAGCAGGTCCCATGGAAGCTTTCTGACGACTGATGATGACTGTAGCGACCCTTTGCAGGCAGCGGACCCCCCCACCTGGTGACAGGTGCCTCTGCGGCCAAAAGCCACGTGTTTAACAGACACCTGCAAAGGCGGCACAACCCCAGTGCCTCATCAAAAGTCTGATGACTGTGGAAATAGTCAACCGGCTTTTCTTAAGCAAATTTGGTGTCGGGGCTGAAGGATGCCCGGAAGGTACCACACTGGTTGTGATCTGATCCGGGGCCACAGTACATGTGCTTTACACATGTAGCTGCGGTTAAAAAACGTCTAGGCCCCCCGAACCACGGGGACGTGGTTTTCCTTTGAAAACCACGATTACAAT
B3: EMCV1 AnrB-3741 (nucleic acid)
DNA: ATGTGGTCGAAGCCACTTGGAATAAGACCGGCGTGCGCTTGTCTATATGTTACTTCCACCACATTGCCGTCTTTTGGCAATGTGAGGGCCCGGAACCTGGCCCTGTCTTCTTGACGAACATTCCTAGGGGACTTTCCCCTCTCGCCAAAGGAATGTAAGGTCTGTTGAATGTCGTGAAGGAAGCAGTTCCTCTGGAAGCTTCTTGAAGACAAACAGCGTCTGTAGCGACCCTTTGCAGGCAGCGGAACCCCCCACCTGGTAACAGGTGCCTCTGCGGCCGAAAGCCACGTGTATAAGATACACCTGCAAAGGCGGCACAACCCCAGTGCCACGTTGTGCGTTGGATAGTTGTGGAAAGAGTCAAATGGCTTTCCCCAAGCGTATTCAACAAGGGGCTGAAGGATGCCCAGAAGGTACCCCACTGGTTGGGATCTGATCTGGGGCCTCGGTGCAGGTGCTTTACACCTGTTGAGTCGAGGTTAAAAAACGTCTAGGCCCCCCGAACCACGGGGACGTGGTTTTCCTAGAAAACCACTATGACAAT
B4: Cosavirus D1 (nucleic acid, listed as Cosavirus sp.)
DNA: CGTGCTTTACACGGTTTTTGAACCCCACACCGGCTGTTTGGCGCTTGCAGGACAGTAGGTATATTTTCTTTCATTTCTCTTTTCTAGCCGCGTAGGTTCTATCTACGCGGGCGGAGTGATACTCCCGCTCCTTCTTGGACAGGCGGCCTCCACGCTCTTTGTGGATCTTAAGGCTGCCAAGTCACTGGTGTTTGAAGTGAAGAATGGAGAGACACTAGGGCGTTTCATGTGGCTTTGCCAGGGATTGTAGCGATGCTGTGTGTGTGTGCGGATTTCCCCTCGTGGCGACACGAGCCTCACAGGCCAAAAGCCCTGTCCGAAAGGACCCACACAGTGGGGTTGCCCCGACCCCTCCCTTCAAAGCTTTGTGTAAACAAACTTTTGTTTAGACTTTCTTAAGCTTCTCTCACATCAGGCCCCAAAGATGTCCTGAAGGTACCCTGTGTATCTGAGGATGAGCACCACCAACTACCCGGACTTGTGGGACGTGTCCCACAGACGCATGTGGTATTCCAGCCCCCTCCTTTTGAGGAGGGGGCTTTTGCTCGCTCAGCACAGGATCTGATCAGGAGATTCATCTCTGGTGCTTTACACCAGAGCATGGATTTAAAAATTGCCCAAGGCCTGGCAAACAACCTAGGGGACTAGGTTTTCTCTATTTTAAAAGATGTCAAT
B5: SAFV V13C (nucleic acid)
DNA: TTTTCGACGTGGTTGGAATTGCCATCATTTCCGACGAAAGTGCTATCATGCCTCCCCGATTATGTGATGTTTTCTGCCCTGCTGGGCGGAGCATTCTCGGGTTGAGAAACCTTGAATCTTTTTCTTTGGAACCTTGGTTCCCCCGGTCTAAGCCGCTTGGAATATGACAGGGTTATTTTCTTGATCTTATTTCTACTTTTGCGGGTTCTATCCGTAAAAAGGGTACGTGCTGCCCCTTCCTTCTCTGGAGAATTCACACGGCGGTCTTTCCGTCTCTCAACAAGTGTGAATGCAGCATGCCGGAAACGGTGAAGAAAACAGTTTTCTGTGGAAATTTAGAGTGCACATCGAAACAGCTGTAGCGACCTCACAGTAGCAGCGGACTCCCCTCTTGGCGACAAGAGCCTCTGCGGCCAAAAGCCCCGTGGATAAGATCCACTGCTGTGAGCGGTGCAACCCCAGCACCCTGGTTCGATGATCATTCTCTATGGAACCAGAAAATGGTTTTCTCAAGCCCTCCGGTAGAGAAGCCAAGAATGTCCTGAAGGTACCCCGCGTGCGGGATCTGATCAGGAGACCAATTGGCGGTGCTTTACACTGTCACTTTGGTTTAAAAATTGTCACAGCTTCTCCAAACCAAGTGGTCTTGGTTTTCCAATTTTGTTGAATGGCAAT
B6: TRV NGS910 (nucleic acid)
DNA: ATGCGACGTGGTTGGAGATTAAACCGACTCCGACGAAAGTGCTATCATGCCTCCCCGATTATGTGATGTTTTCTGCCCTGCTGGGCGGAGCATTCTCGGGTTGATACACCTTGAATCCTTCATCCTTGGACCTCAGGTCCCCCGGTCTAAGCCGCTTGGAATACGACAGGGTTATTTTCCAATCTTCTCCTTTCTACTTTCATGAGTCCTATTCATGAAAAGGGTCTGTGCTGCCCCTTCCTTCTTGGAGAATCTGCGCGGCGGTCTTTCCGTCTCTCGAAAAGCGCAGATGCAGCATGCTGGAACCGGTGAAGAAAACAGTTCTTTGTGGAAACTTAGAGCAGACATCGAAACAGCTGTAGTGACCTCACAGTAGCAGCGGAACCCCCTCCTGGTAACAGGAGCCTCTGCGGCCAAAAGCCCCGTGGATAAGATCCACTGCTGTGAGCGGTGCAACCCCAGCACCCTGGTTCGATGGTTGTTCTCTGTGGAACCAGAGAATGGTCTTTCTCAAGCCCTCCAGTAGAGAAGCCAAGAATGTCCTGAAGGTACCCCGCATGCGGGATCTGATCAGGAGACCAATCGTCAGTGCTTTACACTGGCGCTTTGGTTTAAAAACTGTCACAGCTTCTCCAAACCAAGTGGTCTTGGTTTTCACTTTTATCAAACTGTTTC
B7: VHEV (nucleic acid)
DNA: AATTCCTTCTTCCTTTCTCCTTGGACCTCGGTCCCCCGGTCTAAGCCGCTCGGAATATGACAGGGTTATTTTCACCTCTTCTCTCTTCTACTTCATAGTGTTCTATACTATGAAAGGGTATGTGTCGCCCCTTCCTTCTTGGAGAACGTGCGTGGCGGTCTTTCCGTCTCTCGAAAAACGTGCGTGCGACATGCAGAGTAACGCAAAGAAAGCAGTTCTTGGTCTAGCTCTGGTGCCCACAAGAAAACAGCTGTAGCGACCACACAAAGGCAGCGGAAACCCCCTCCTGGTAACAGGAGCCTCTGCGGCCAAAAGCCACGTGGATAAGATCCACCTTTGTGTGCGGTGCAACCCCAGCACCCTGGTTTCTTGGTGACACCTTAGTGAACCCTCGAATGGCAATCTCAAGCGCCTCTGTAGGAAAGCCAAGAATGTCCAGGAGGTACCCCTTCCTCATGGAGGGATCTGACCTGGAGACACATCACACGTGCTATACACTTGTGCTTGTGTTTAAAAATTGTCACAGCTTTCCCAAACCAAGTGGTCTTGGTTTTCCCTTAACTTCGAAAAGTCACTATGGCCTGCAAACATGGATACCCAGACGTGTGCCCT
B8: BRBV-1 (nucleic acid)
DNA: CCCCCCCTACTTAAAGATGTACGGTTTTGCTGCTTTCACAGAGTAAAGCAGATAGAGGTTCTGAACTGGCAAACTTTACCTCGAAACACGCCCGTTTTTCTGCTGTGTCTCACAGACTGTCCTGTCACACTTGTGGCGGCTTGTGACACTGTGAACATAGTGAGACCGACCAAGACAACAGTTTCAAGTGATGAACATCGAACGTCTAAACTGGATCCGTAACTGGACATGTTAGGGCAAGGACTTCCCCCCTGGTAACAGGAGCCTGGCTGGCCAAAAGCCCCGCTCATTGAGCCTAGCATGTTGTCGACCCTGGACTGTTCAGTTTAGTTAGTACATGGAATTCACTTGTCACGGTTCTTCTGAACTCGGTCTCTAGTATGACAGCCTAAGGATGCCCTCCAGGTACCCCGGGGTAACAAGTGACACCCGGGATCTGAGGAGGGGACTACTTTACGTAGTTTAAAAAACGTCTAAGCTGTTATGGTGACCAGAGGCTGGCACCTTTCACTTTTAAAATTACACTACTGACTACAATTGAAGTGATAACGGTTTTACAGGCTTTCAAACTAGTTACACAAGCACTGTTTTCCTGACACACACACTTT
modifications: Bovine rhinitis B virus
B9: SAV P-113 (nucleic acid)
DNA: GGAGATCTAAGTCAACCGACTCCGACGAAACTACCATCATGCCTCCCCGATTATGTGATGCTTTCTGCCCTGCTGGGTGGAGCATCCTCGGGTTGAGAAAACCTTCTTCCTTTTTCCTTGGACCCCGGTCCCCCGGTCTAAGCCGCTTGGAATAAGACAGGGTTATCTTCACCTCTTCCTTCTTCTACTTCATAGTGTTCTATACTATGAAAGGGTATGTGTCGCCCCTTCCTTCTTTGGAGAACACGCGCGGCGGTCTTTCCGTCTCTCGAAAAGCGCGTGTGCGACATGCAGAGAACCGTGAAGAAAGCAGTTTGCGGACTAGCTTTAGTGCCCACAAGAAAACAGCTGTAGCGACCACACAAAGGCAGCGGACCCCCCCTCCTGGCAACAGGAGCCTCTGCGGCCAAAAGCCACGTGGATAAGATCCACCTTTGTGTGCGGCACAACCCCAGTGCCCTGGTTTCTTGGTGACACTTCAGTGAAAACGCAAATGGCGATCTGAAGCGCCTCTGTAGGAAAGCCAAGAATGTCCAGGAGGTACCCCTTCCCTCGGGAAGGGATCTGACCTGGAGACACATCACATGTGCTTTACACCTGTGCTTGTGTTTAAAAATTGTCACAGCTTTCCCAAACCAAGTGGTCTTGGTTTTCACTCTTTAAACTGATTTCACT

In this data set the test system is HEK293 cells. Format: cell-based, human. Conditions: luminescence from secreted Gluc in supernatant 24 hours after transfection of HEK293 cells; circular RNA encoding Gluc with the named IRES (UTR truncated to 675 nt).
As for B1, the Expression stood at 1.23E+06. The value for B2 was 1.97E+06; that for B3 was 2.55E+06; that for B4 was 2.11E+06. The value for B5 was 9.32E+07; that for B6 was 3.84E+07; that for B7 was 1.74E+08. The value for B8 was 3.34E+06; that for B9 was 4.37E+07.
